Settings: Pseudomonas aeruginosa (strain ATCC 15692 / DSM 22644 / CIP 104116 / JCM 14847 / LMG 12228 / 1C / PRS 101 / PAO1); pH 7.2; 20 °C; GdnHCl; CD + Fluorescence; Tris-HCl 50 mM; reversible: yes; whole UniProt chain shown

B1: Azurin wild type, P00282 (protein)
chain: MLRKLAAVSLLSLLSAPLLAAECSVDIQGNDQMQFNTNAITVDKSCKQFTVNLSHPGNLPKNVMGHNWVLSTAADMQGVVTDGMASGLDKDYLKPDDSRVIAHTKLIGSGEKDSVTFDVSKLKEGEQYMFFCTFPGHSALMKGTLTLK
  denaturant m value: 3.3 kcal/mol/M
  denaturant midpoint (higher = more stable): 2.78 M
  unfolding free energy: 9.4 kcal/mol
